B1: TIRC7: in vitro translated T-cell immune response cDNA 7 protein, involved in signal transduction of T-cell activation and/or proliferation (protein, UniProt Q13488 1-830, looked up)
V-type proton ATPase 116 kDa …: MGSMFRSEEVALVQLFLPTAAAYTCVSRLGELGLVEFRDLNASVSAFQRRFVVDVRRCEELEKTFTFLQEEVRRAGLVLPPPKGRLPAPPPRDLLRIQEETERLAQELRDVRGNQQALRAQLHQLQLHAAVLRQGHEPQLAAAHTDGASERTPLLQAPGGPHQDLRVNFVAGAVEPHKAPALERLLWRACRGFLIASFRELEQPLEHPVTGEPATWMTFLISYWGEQIGQKIRKITDCFHCHVFPFLQQEEARLGALQQLQQQSQELQEVLGETERFLSQVLGRVLQLLPPGQVQVHKMKAVYLALNQCSVSTTHKCLIAEAWCSVRDLPALQEALRDSSMEEGVSAVAHRIPCRDMPPTLIRTNRFTASFQGIVDAYGVGRYQEVNPAPYTIITFPFLFAVMFGDVGHGLLMFLFALAMVLAENRPAVKAAQNEIWQTFFRGRYLLLLMGLFSIYTGFIYNECFSRATSIFPSGWSVAAMANQSGWSDAFLAQHTMLTLDPNVTGVFLGPYPFGIDPIWSLAANHLSFLNSFKMKMSVILGVVHMAFGVVLGVFNHVHFGQRHRLLLETLPELTFLLGLFGYLVFLVIYKWLCVWAARAASAPSILIHFINMFLFSHSPSNRLLYPRQEVVQATLVVLALAMVPILLLGTPLHLLHRHRRRLRRRPADRQEENKAGLLDLPDASVNGWSSDEEKAGGLDDEEEAELVPSEVLMHQAIHTIEFCLGCVSNTASYLRLWALSLAHAQLSEVLWAMVMRIGLGLGREVGVAAVVLVPIFAAFAVMTVAILLVMEGLSAFLHALRLHWVEFQNKFYSGTGYKLSPFTFAATDD
modifications: TIRC7 in vitro translated
B2: A61V: synthetic peptide derived from the third extracellular domain of TIRC7 protein (SEQ ID NO: 4, FIG. 1) (peptide)
chain: ADRQEENKAGLLDLPDASVNGWSSDEEKAGGLDDEEEAELVPSEVLMHQAIHTIEFCLGCV
modifications: TIRC7 peptide

How the values were obtained:
[1] = system: PBMC; experiment: Mixed lymphocyte reaction (MLR): inhibition of proliferation of stimulated PBMC by TIRC7 derived peptides; type: cell-based; conditions: mitomycin-inactivated PBMC (stimulator), CFSE-stained PBMC (responder), 6 days incubation with peptide in PBS, pH 7.3
Procedure: As described in Example 1 herein, peptides were tested for their ability to inhibit proliferation of mitomycin-stimulated PBMCs.
Freshly isolated PBMC were inactivated with mitomycin (stimulator), or stained with CFSE (responder). Cells were incubated for 6 days with the peptides as described in FIG. 1, dissolved in PBS and titrated to pH 7.3. Subsequently, an in vitro assay, mixed lymphocyte reaction (MLR), was performed essentially as described in international applications WO99/11782 and WO03/025000 to analyze the potency of the tested TIRC7 derived peptides to inhibit the immune response. For all peptides shown in FIG. 1 substantial inhibition of proliferation could be observed.

[2] = system: activated T-cells; conditions: dose dependent, cited from earlier work

Row | Molecule | inhibition of proliferation [1] | suppression of proliferation of activated T-cells in MLR ([2]; MLR) | suppression of proliferation of T-cells ([2]; in response to alloactivation in a mixed lymphocyte culture or in response to mitogens)
1 | D46M: synthetic peptide derived from the third extracellular domain of TIRC7 protein (SEQ ID NO: 3, FIG. 1) (DRQEENKAGLLDLPDASVNGWSSDEEKAGGLDDEEEAELVPSEVLM; TIRC7 peptide) | Particular advantageous | – | –
2 | B1 | – | significantly suppressed | efficiently suppress
3 | B2 | Particular advantageous | – | –

— patent US9096654B2, “Peptides capable of modulating the function of TIRC7” (CELLACT PHARMA GMBH, priority 2005, dated 2015)
